Article PMC11272584 (Nature Metabolism, 2024)
Changes are numbered by the printed parent chain.

Key:
[1] = biological target: T1, GIPR T25R (human) (UniProt P48546)
T1 sequence: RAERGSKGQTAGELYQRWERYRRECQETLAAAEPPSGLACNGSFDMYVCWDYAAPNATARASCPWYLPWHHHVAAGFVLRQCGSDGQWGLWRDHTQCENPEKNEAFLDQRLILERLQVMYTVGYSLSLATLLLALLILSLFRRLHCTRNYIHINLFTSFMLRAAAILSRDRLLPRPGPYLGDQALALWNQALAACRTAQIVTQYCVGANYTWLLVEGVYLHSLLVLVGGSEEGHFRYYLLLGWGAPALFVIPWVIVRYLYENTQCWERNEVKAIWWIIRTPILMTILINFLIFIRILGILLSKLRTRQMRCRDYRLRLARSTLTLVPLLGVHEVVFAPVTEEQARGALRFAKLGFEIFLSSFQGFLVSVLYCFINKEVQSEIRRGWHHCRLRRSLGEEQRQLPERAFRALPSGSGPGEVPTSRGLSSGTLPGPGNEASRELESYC

[2] = biological target: T2, GIPR Y73H (human) (UniProt P48546)
T2 sequence: T1 sequence with R4T, Y52H

β-arrestin 2 (Rluc8-Arrestin-3-Sp1) (from UniProt P32121 1-409) (natural protein)
β-arrestin 2 recruitment (BRET) on stimulation with GIP(1-42): logEC50 (Arrestin) (log M (inferred)) [1]: -9.3 | β-arrestin 2 recruitment (BRET) on stimulation with GIP(1-42): logEC50 (Arrestin) (log M (inferred)) [2]: -9.11
